Patent US20250340890, “DNA […] AS UNIVERSAL INHIBITORS OF SPIKE PROTEIN/HACE2 INTERACTIONS” (Bowling Green State University, published 2025)

B1: S2A2 (ssDNA)
DNA: CAAGGAGCGACCAGAGGCGGGTTCCTAGACTTGTACTCAGCCTTTACAGCTATGCCCTGGCATCCTTCAGCCC
B2: S2A1C1 (ssDNA)
DNA: CAAGGAGCGACCAGAGGGGCGGTTTATCAACAACTCGCTCTGTACACCACTCTTTG
B3: S2A1 (ssDNA)
DNA: CAAGGAGCGACCAGAGGGGCGGTTTATCAACAACTCGCTCTGTACACCACTCTTTGTTGGCATCCTTCAGCCC
B4: A1C1 (ssDNA)
DNA: CGGGACGACGACGGACATCGTGAGAAATGGTCGACCTTGTGTCTGTCGTCCCG

Key:
[1] = biological target: SARS-CoV-2 WT spike S1S2 extracellular domain (SARS-CoV-2, UniProt P0DTC2)
[2] = biological target: SARS-CoV-2 WT spike S2 domain (SARS-CoV-2, UniProt P0DTC2 P0DTC2:686-1213)
[3] = biological target: Bovine serum albumin (BSA) (Bos taurus, UniProt P02769 P02769:25-607)
[4] = biological target: SARS-CoV-2 WT spike S1 (SARS-CoV-2, UniProt P0DTC2 P0DTC2:14-685)
[5] = biological target: PD-L1 (UniProt Q9NZQ7 Q9NZQ7:19-238)
[6] = biological target: Lysozyme (UniProt P00698 P00698:19-147)
Chain of Lysozyme (P00698 19-147, one chain of several): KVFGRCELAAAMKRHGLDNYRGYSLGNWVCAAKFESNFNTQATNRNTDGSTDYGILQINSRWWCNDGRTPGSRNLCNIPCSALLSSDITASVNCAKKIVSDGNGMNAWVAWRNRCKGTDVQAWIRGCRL

Chain of Bovine serum albumin (BSA) (P02769 25-607, one chain of several): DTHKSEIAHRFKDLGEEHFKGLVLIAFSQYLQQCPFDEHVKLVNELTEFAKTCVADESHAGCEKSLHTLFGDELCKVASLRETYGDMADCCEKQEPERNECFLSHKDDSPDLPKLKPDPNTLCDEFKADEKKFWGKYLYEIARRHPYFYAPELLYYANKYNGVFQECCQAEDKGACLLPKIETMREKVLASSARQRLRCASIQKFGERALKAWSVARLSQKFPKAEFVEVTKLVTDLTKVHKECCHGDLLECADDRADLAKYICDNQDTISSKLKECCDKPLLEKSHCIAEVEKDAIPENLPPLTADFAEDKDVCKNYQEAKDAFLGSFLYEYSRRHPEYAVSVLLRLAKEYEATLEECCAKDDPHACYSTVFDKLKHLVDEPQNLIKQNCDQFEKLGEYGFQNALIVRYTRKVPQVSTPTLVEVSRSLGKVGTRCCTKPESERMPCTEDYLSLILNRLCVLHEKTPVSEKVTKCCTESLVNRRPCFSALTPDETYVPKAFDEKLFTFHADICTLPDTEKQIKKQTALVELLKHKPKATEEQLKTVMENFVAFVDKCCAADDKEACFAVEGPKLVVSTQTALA
Chain of PD-L1 (Q9NZQ7 19-238, one chain of several): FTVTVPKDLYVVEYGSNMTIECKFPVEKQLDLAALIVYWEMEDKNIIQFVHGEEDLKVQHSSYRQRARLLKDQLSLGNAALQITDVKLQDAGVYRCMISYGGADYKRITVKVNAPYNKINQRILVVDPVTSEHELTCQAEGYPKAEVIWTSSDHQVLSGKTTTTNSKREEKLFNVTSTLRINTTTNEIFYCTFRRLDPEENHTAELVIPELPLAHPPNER

Binder | binding result [1] | binding result [2] | binding result [3] | further results
B1 | binds | – | – | –
B2 | – | binds | – | –
B3 | binds | – | – | –
B4 | – | – | no binding | –
AGGCGGGTTCCTAGACTTGTACTCAGCCT (ssDNA) [S2A2C1] | – | – | no binding | binding result [4]: no binding; binding result [5]: no binding; binding result [6]: no binding
CAAGGAGCGACCAGAGGCGGGTTCCTAGACTTGTACTCAGCCT (ssDNA) [S2A2C3] | – | binds | – | –
